US20140308239A1 (ELEVEN BIOTHERAPEUTICS, published 2014)
Numbering of substitutions follows the chain as printed.

T1: soluble recombinant human IL-1RI (corresponding to the extracellular domain of IL-1RI) (human, UniProt P14778 18-336)
T1 construct: extracellular domain
T1 sequence (looked up): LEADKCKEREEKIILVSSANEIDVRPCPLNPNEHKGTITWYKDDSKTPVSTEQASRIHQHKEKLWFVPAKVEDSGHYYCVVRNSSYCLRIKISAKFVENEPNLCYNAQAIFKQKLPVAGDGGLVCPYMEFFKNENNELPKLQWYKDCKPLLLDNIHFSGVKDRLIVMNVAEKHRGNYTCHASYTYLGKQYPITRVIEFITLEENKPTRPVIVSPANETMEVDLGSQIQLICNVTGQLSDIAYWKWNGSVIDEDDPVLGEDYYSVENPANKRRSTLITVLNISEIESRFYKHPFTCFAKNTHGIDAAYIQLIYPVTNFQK

T2: IL-1RI on HEK-Blue IL-1β responsive cells (UniProt P14778 18-569)
T2 sequence (looked up): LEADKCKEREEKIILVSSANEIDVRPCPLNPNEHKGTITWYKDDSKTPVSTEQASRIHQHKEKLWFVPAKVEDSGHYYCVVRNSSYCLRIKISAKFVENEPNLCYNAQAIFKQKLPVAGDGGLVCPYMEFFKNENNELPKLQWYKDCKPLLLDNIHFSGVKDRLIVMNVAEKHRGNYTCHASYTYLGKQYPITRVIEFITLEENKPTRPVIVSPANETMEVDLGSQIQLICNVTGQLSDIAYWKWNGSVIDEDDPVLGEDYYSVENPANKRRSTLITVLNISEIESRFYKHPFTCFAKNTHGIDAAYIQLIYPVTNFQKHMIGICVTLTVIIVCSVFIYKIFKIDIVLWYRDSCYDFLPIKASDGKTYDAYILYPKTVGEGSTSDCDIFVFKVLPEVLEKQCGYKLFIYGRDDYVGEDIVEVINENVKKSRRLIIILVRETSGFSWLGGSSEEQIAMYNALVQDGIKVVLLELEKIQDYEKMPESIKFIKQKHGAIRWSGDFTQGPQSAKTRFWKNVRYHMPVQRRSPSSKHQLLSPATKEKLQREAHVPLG

B1: P06 (designed binder)
chain: APVRSLNCTLWDVNQKTFYLRNNQLVAGYLQGPNVEQQVVFSMSFVQGEESNDKIPVALGLKEKNLYLSCVLKDDKPTLQLESVDPKNYPKKKMEKRFVFNKIEINNKLEFESAQFPNWYISTSMEADQPVFLGGTKGGQDITDFTMQFVSS
notes: Expressed in E. coli
B2: P04 (designed binder)
chain: APVRSLAFRIWDVNQKTFYLRNNQLVAGYLQGPNVNLEEKFSMSFVQGEESNDKIPVALGLKEKNLYLSCVLKDDKPTLQLESVDPKNYPKKKMEKRFVFNKIEINNKLEFESAACPGWFLCTAMEADQPVSLTNMPDEGVMVTKFTMQFVSS
notes: Expressed in E. coli; also called chimeric cytokine domain P04
B3: P07 (designed binder)
chain: B2 chain with A7N, F8C, A115Q, C116F, G118N, V141Q, M142D, V143I, K145D
notes: Expressed in E. coli
B4: P03 (designed binder)
chain: B2 chain with N101I, K102R, I103S, E104D, I105S, N106G, N107P, K108T, L109T, E110S
notes: Expressed in E. coli; also called chimeric cytokine domain P03
B5: P05 (designed binder)
chain: B2 chain with A7N, F8C, A115Q, C116F, G118N, T147Y
notes: Expressed in E. coli; also called EBI-005; chimeric cytokine domain P05
B6: P01 (designed binder)
chain: APVRSLAFRIWDVNQKTFYLRNNQLVAGYLQGPNVNLEEKIDVSFVQGEESNDKIPVALGIHGGKMCLSCVKSGDETRLQLEAVDPKNYPKKKMDKRFAFIRSDSGPTTSFESAACPGWFLCTAMEADQPVSLTNMPDEGVMVTKFYMQFVSS
notes: Expressed in E. coli; In the cell assay, supernatants or lysates containing P01 were used; also called chimeric cytokine domain P01
B7: P02 (designed binder)
chain: APVRSLAFRIWDVNQKTFYLRNNQLVAGYLQGPNVNLEEKIDVSFVQGEESNDKIPVALGIHGGKMCLSCVKSGDETRLQLEAVDPKNYPKKKMEKRFVFNKIEINNKLSFESAACPGWFLCTAMEADQPVSLTNMPDEGVMVTKFYMQFVSS
notes: Expressed in E. coli; also called chimeric cytokine domain P02

How the values were obtained:
[1] = target: IL-1RI on HEK-Blue IL-1β responsive cells (UniProt P14778)
[2] = target: T1, soluble recombinant human IL-1RI …; assay: SPR (Reichert SR7000DC), soluble recombinant human IL-1RI, PBS with 0.005% Tween 20
Procedure: The binding properties of proteins for soluble recombinant human IL-1RI (corresponding to the extracellular domain of IL-1RI) were evaluated using surface plasmon resonance with a Reichert SR7000DC Dual Channel SPR system. Binding was evaluated in phosphate buffered saline with 0.005% Tween 20. […] Thus, the P01 protein bound to IL-1RI with a greater affinity than did IL-1β under similar conditions.

[3] = target: T2, IL-1RI on HEK-Blue IL-1β responsive …; assay: cell-based or functional assay
[4] = target: T2, IL-1RI on HEK-Blue IL-1β responsive …; assay: cell-based or functional assay; remark: listed apart in the source
[5] = target: T2, IL-1RI on HEK-Blue IL-1β responsive …; assay: cell-based or functional assay; remark: listed apart in the source

Row | OD650 (SEAP reporter of HEK-Blue IL-1β cells, agonism test, negative control; amount of protein not given) [1] [OD650] | Kd [2] [pM] | koff [2] [s⁻¹] | kon [2] [M⁻¹ s⁻¹] | OD650 (SEAP reporter of HEK-Blue IL-1β cells, agonism test, protein alone; amount of protein not given) [3] [OD650] | IC50 (read off the curve); HEK-Blue IL-1β SEAP reporter, IL-1β 0.1 ng/ml, lysate with untagged P04, concentration estimated [4] [ng/mL] | IC50 (read off the curve); HEK-Blue IL-1β SEAP reporter, IL-1β 0.1 ng/ml, lysate with untagged P03, concentration estimated [4] [ng/mL] | IC50, antagonism of IL-1β activity in the HEK-Blue IL-1β SEAP reporter assay [5] [ng/mL] | IC50 (read off the curve); HEK-Blue IL-1β SEAP reporter, IL-1β 0.1 ng/ml, lysate with untagged P01, concentration estimated [4] [ng/mL] | IC50 (read off the curve); HEK-Blue IL-1β SEAP reporter, IL-1β 0.1 ng/ml, lysate with untagged P02, concentration estimated [4] [ng/mL] | Molecule
1 | 0.06 |  |  |  |  |  |  |  |  |  | GUS (enzyme)
2 |  | 410 | 0.0017 | 4.8e+06 | 1.78 |  |  |  |  |  | B1
3 |  | 1710 |  |  |  | ~6 |  |  |  |  | B2
4 |  | 92600 | 0.00146 | 15800 | 0.222 |  |  |  |  |  | B3
5 |  | 290 | 0.0012 | 4.1e+06 |  |  | ~2 |  |  |  | B4
6 |  | 12 | 4.15e-05 | 3.47e+06 |  |  |  | < 5 |  |  | B5
7 |  | 470 | 2.32e-05 | 49300 | 0.061 |  |  |  | ~1 |  | B6
8 |  | 636 | 2.16e-05 | 33900 |  |  |  |  |  | ~1 | B7
